Measured values taken from US20250076311A1 (Chugai, published 2025).
Residue numbers refer to the chain shown, from its start. Blank lines part the entries; values can stand above or below the binder they belong to.

Assays:
[1] = biological target: T1, cynomolgus monkey FcγRIIIaS extracellular domain with C-terminal His-tag (cynomolgus monkey, UniProt Q8SPW2 21-206 at identity 1.00)); assay: SPR, KD(SG1)/KD(variant)
T1 construct: also called cyno FcgRIIIaS; cynoFcγRIIIaS
T1 chain: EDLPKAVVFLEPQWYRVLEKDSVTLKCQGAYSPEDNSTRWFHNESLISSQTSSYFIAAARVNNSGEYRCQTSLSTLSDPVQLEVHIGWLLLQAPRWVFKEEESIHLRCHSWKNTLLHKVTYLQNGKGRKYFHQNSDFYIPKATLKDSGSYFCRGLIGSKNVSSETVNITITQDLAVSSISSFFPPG

[2] = biological target: T2, human FcγRIIaR extracellular domain with C-terminal His-tag (human, UniProt P12318 34-217); assay: SPR (Biacore), antibody captured, FcgR analyte
T2 construct: also called human FcgRIIaR; FcγRIIa (type R)
T2 chain: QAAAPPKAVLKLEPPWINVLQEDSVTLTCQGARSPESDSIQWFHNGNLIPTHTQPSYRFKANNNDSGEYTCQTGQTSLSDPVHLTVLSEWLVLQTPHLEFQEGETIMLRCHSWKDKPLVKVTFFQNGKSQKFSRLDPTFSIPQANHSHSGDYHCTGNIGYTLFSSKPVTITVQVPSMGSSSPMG
Procedure: (§1) The kinetic analysis of interactions between these antibodies and FcγR was carried out using BIACORE® T200 or BIACORE® 4000 (GE Healthcare). HBS-EP+ (GE Healthcare) was used as the running buffer, and the measurement temperature was set to 25° C. […] After the measurement, the antibody captured on the chip was washed off by allowing reaction with 10 mM glycine-HCl, pH1.5 and 25 mM NaOH so that the chip was regenerated and used repeatedly. The sensorgrams obtained as measurement results were analyzed by the 1:1 Langmuir binding model using the BIACORE® Evaluation Software to calculate the binding rate constant ka (L/mol/s) and dissociation rate constant kd (1/s), and the dissociation constant KD (mol/L) was calculated from these values. […] Regarding such interactions, KD values were calculated using the following 1:1 binding model described in BIACORE® T100 Software Handbook BR1006-48 Edition AE.

[3] = biological target: T3, cynomolgus monkey FcγRIIa3 extracellular domain with C-terminal His-tag (cynomolgus monkey); assay: SPR (Biacore), KD of SG1 / KD of variant
T3 construct: also called cyno FcgRIIa3; cynoFcγRIIa3
T3 chain: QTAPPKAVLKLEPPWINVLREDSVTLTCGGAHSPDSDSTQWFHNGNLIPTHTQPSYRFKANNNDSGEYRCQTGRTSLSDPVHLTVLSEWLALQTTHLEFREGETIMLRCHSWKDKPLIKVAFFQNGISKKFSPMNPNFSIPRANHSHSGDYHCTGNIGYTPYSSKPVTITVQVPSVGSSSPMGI
Procedure: as §1

[4] = biological target: T4, cynomolgus monkey FcγRIIIaS extracellular domain with C-terminal His-tag (cynomolgus monkey, UniProt A3RFZ7 21-206 (rhesus entry)); assay: SPR Biacore, antibody captured, FcgR analyte
T4 construct: also called cyno FcgRIIIaS; cynoFcγRIIIaS; not shown: His-tag added to C-terminus

[5] = biological target: T5, cynomolgus monkey FcγRIIa1 extracellular domain with C-terminal His-tag (cynomolgus monkey); assay: SPR Biacore, antibody captured, FcgR analyte
T5 construct: also called cyno FcgRIIa1; cynoFcγRIIa1; not shown: His-tag added to C-terminus
T5 chain: T3 chain with T95P, A121T, S128A, P133H, N135D

[6] = biological target: T6, human FcγRIIaH extracellular domain with C-terminal His-tag (human, UniProt P12318 34-217); assay: SPR Biacore, antibody captured, FcgR analyte
T6 construct: also called human FcgRIIaH; FcγRIIa (type H); not shown: His-tag added to C-terminus
T6 sequence: T2 chain with R134H

[7] = biological target: T7, cynomolgus monkey FcγRIIb extracellular domain with C-terminal His-tag (cynomolgus monkey); assay: SPR (Biacore), KD of SG1 / KD of variant
T7 construct: also called cyno FcgRIIb; cynoFcγRIIb
T7 chain: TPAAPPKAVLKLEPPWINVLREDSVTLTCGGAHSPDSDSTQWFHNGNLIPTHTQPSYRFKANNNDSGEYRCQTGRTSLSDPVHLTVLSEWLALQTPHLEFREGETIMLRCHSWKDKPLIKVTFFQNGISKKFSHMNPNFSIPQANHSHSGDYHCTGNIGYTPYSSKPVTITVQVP
Procedure: as §1

[8] = biological target: T8, cynomolgus monkey FcγRIIa2 extracellular domain with C-terminal His-tag (cynomolgus monkey); assay: SPR (Biacore), KD of SG1 / KD of variant
T8 construct: also called cyno FcgRIIa2; cynoFcγRIIa2
T8 chain: T3 chain with I127K, K130N, P133H, R142Q
Procedure: as §1

[9] = biological target: T9, cynomolgus monkey FcγRIIb extracellular domain with C-terminal His-tag (cynomolgus monkey); assay: SPR Biacore, antibody captured, FcgR analyte
T9 construct: also called cyno FcgRIIb; cynoFcγRIIb; not shown: His-tag added to C-terminus
T9 chain: T7 chain

[10] = biological target: T10, human FcγRIIb extracellular domain with C-terminal His-tag (human, UniProt P31994 43-217); assay: SPR Biacore, antibody captured, FcgR analyte
T10 construct: also called human FcgRIIb; not shown: His-tag added to C-terminus
T10 sequence: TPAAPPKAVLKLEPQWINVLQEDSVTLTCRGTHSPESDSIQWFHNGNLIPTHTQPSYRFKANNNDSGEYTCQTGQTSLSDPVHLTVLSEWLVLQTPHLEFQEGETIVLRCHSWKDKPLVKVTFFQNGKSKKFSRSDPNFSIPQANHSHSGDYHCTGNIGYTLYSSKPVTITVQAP

[11] = biological target: T11, cynomolgus monkey FcγRIIa3 extracellular domain with C-terminal His-tag (cynomolgus monkey); assay: SPR Biacore, antibody captured, FcgR analyte
T11 construct: also called cyno FcgRIIa3; cynoFcγRIIa3; not shown: His-tag added to C-terminus
T11 chain: T3 chain

B2: M103205H795-MY451/M103202L889-SK1 (antibody, human IgG1, kappa)
heavy: QVTLKESGPVLVKPTETLTLTCTVSGIDLSHDDISWVRQAPGKGLEWVGIISYAGSTYYASWAKGRLTISKDTSKNQVVLTMTNMDPVDTATYYCARGVPAYSHGGDLWGQGTLVTVSSASTKGPSVFPLAPSSKSTSGGTAALGCLVKDYFPEPVTVSWNSGALTSGVHTFPAVLQSSGLYSLSSVVTVPSSSLGTQTYICNVNHKPSNTKVDKKVEPKSCDKTHTCPPCPANELLTGPSVFLFPPKPKDTLMISRTPEVTCVVVDVSDEDPEVKFNWYVDGVEVHNAKTKPREEQYNSTYRVVSVLTVLHQDWLNGKEYKCKVSNKALPKPIEKTISKAKGQPREPQVYTLPPSREEMTKNQVSLTCLVKGFYPSDIAVEWESNGQPENNYKTTPPVLDSDGSFFLYSKLTVDKSRWQQGNVFSCSVMHEALHNHYTQKSLSLSP
light: DIVMTQSPATLSLSPGERATLSCTSSQSVYHANWLSWFQQKPGQPPKLLIYWASTLAYGVPSRFSGSGSGTDFTLTISSLQPEDAATYYCAGGYGGGRYAFGQGTKVEIKRTVAAPSVFIFPPSDEQLKSGTASVVCLLNNFYPREAKVQWKVDNALQSGNSQESVTEQDSKDSTYSLSSTLTLSKADYEKHKVYACEVTHQGLSSPVTKSFNRGEC
notes: Substitutions in EU numbering on SG1
- Kd [2]: 0.64 µM
- KD fold (SG1 = 1) [3]: 2.5 fold

B3: M103205H795-MY198/M103202L889-SK1 (antibody, human IgG1, kappa, name in EU numbering)
heavy: B2 heavy with N234P, T238N, S241V, P398M
light: B2 light
notes: substitutions in EU numbering, introduced into M103205H795-SG1
- KD fold (SG1 = 1) [4]: 0.15 fold
- KD fold (SG1 = 1) [5]: 7.5 fold
- KD fold (SG1 = 1) [6]: 1.2 fold

B6: M103205H795-MY445/M103202L889-SK1 (antibody, human IgG1, kappa)
heavy: B2 heavy with N234G
light: B2 light
notes: as for B2
- Kd [2]: 1.1 µM
- KD fold (SG1 = 1) [8]: 0.5 fold

B8: M103205H795-MY442/M103202L889-SK1 (antibody, human IgG1, kappa)
heavy: B2 heavy with N234D
light: B2 light
notes: as for B2
- KD fold (SG1 = 1) [7]: 1 fold

B9: M103205H795-MY173/M103202L889-SK1 (antibody, human IgG1, kappa, name in EU numbering)
heavy: B2 heavy with N234P, T238N, D270E, K332A, P398H
light: B2 light
notes: EU numbering
- KD fold (SG1 = 1) [4]: 0.12 fold
- Kd [4]: 3.1 µM
- KD fold (SG1 = 1) [5]: 1.5 fold
- Kd [9]: 0.73 µM
- Kd [10]: 1 µM
- Kd [11]: 8 µM

Other lines, results leading:

- KD fold (SG1 = 1) [1]: 0.23 fold
B1: M103205H795-MY536/M103202L889-SK1 (antibody, human IgG1, kappa, name in EU numbering)
heavy: B2 heavy with A233G, N234P, L236W, S241V
light: B2 light
notes: copies: 2 + 2

- KD fold (SG1 = 1) [7]: 3.5 fold
B4: M103205H795-MY467/M103202L889-SK1 (antibody, human IgG1, kappa)
heavy: B2 heavy with A233M, N234P
light: B2 light
notes: as for B2

- KD fold (SG1 = 1) [1]: 0.25 fold
B5: M103205H795-MY538/M103202L889-SK1 (antibody, human IgG1, kappa, name in EU numbering)
heavy: B2 heavy with A233G, N234P, L236W, Q297L
light: B2 light
notes: copies: 2 + 2

- KD fold (SG1 = 1) [3]: 3.5 fold
- KD fold (SG1 = 1) [8]: 1.8 fold
- KD fold (SG1 = 1) [7]: 2.5 fold
B7: M103205H795-MY465/M103202L889-SK1 (antibody)
heavy: B2 heavy with A233K, N234P
light: B2 light
notes: as for B2
